This data set can be described thus: protease stability score; higher = more stable; yeast display proteolysis, trypsin and chymotrypsin.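 Further: relative to predicted unfolded state with 0 unfolded-like and 1 meaning tenfold more protease.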
“TERHEHVLHLLNLFLEEWLTGDWDKFFRLADPNVKYFINGQDIHGRETIRENHEQKWRELRIREIRVHSVDVVGDKAHADITENLEVNGREIRTRSHLDIVVVNGRVHHVRMHVD” yielded a protease stability score of 0.544.

For the sequence “TERREVVEQLLRHFFQSTITGDWRDLEHYIDPNARNIVNGKITHGREAITEYYMRFDYFHVDDIIIRERDVIDGQAHLRVEIHGQIEINGRKNRFETHVEIIILKVDGRWVWRSFDIR”, the protease stability score was determined as 1.33.

Sequence “TESEEDAEWAFRILEHVLETGDEHLLRVLLDPHVRVHIDGRNIHGRENVIRELTEIRIHVEMHLEHVDLQGDKMHIDLRVHIIIIFNGQEKRRTHRMEMIVFKYDGKWFINEIHFH” gave a protease stability score of 1.37.

“TESEFMKEYANKHLTRHLETGDWKDFQRNVDPNARVDFNGVELIGREHAIKLFHEIRIEHLEIHDVKMQGDKLEVDGILHTRQGDKRHDLKVIIHMLKVDGKWVITEIEVR” showed a protease stability score of 0.948.

Take “TESEKEAHDAVKRSIDSWLTGDEHDMAELLDPNVRLEIGDKTFIGREEFVKWLKDVREKFKGVRLHIRDYRVHVVGDKVRVEIDIQEDYGDKFHDVTLVFILRKIDGRWHNQSVEVRIE”: the protease stability score is 1.58.

In turn, “TESEKLSRIVIKLLIESTRTGDERILHELVDPNVKLNVNGRELHGWEEMVKIHKQWRFHDLEVDSVRLIGDKMEIDTTIHGTIDGQKDNIDVRIILEKVNGRWVLREVHIK” yielded a protease stability score of 1.58.

Sequence “TESEKMALIAIEIIFHDLLTGNEESLIKLADPDVQLHYGDKTFHGREEFHKLYSEIIKRYDHIEVLIRDIRVQGDKMHVKEELNLVINGKTVHLESNRTSLKYNGRWHLKSVHLH” came in with a protease stability score of 1.26.

As for “TESEKSAHEFLELFEKSIVTGDEDNLDKMADPNVQTIINGREFHGREEMVKAFREIWNIMGVKHIEIRLKQIDFQGEKISVDSRLHIDVNGKRIDHSMTIIFRKINGRWVLESINRD”, the protease stability score was determined as 1.34.

“TESKQEEHLALEVIEHAYRTGDEHELHELLDPHTRIFIGDKTHHGREFYLRVLKRERDELGVDKIEIIIRRVEIQGDKMIMDGELRVNGKTVRVHLILRKYDGRWLIKHITHE”: the protease stability score was determined as 1.47.

For “TETERHIEEHLRQMVHQLRTGDFERFEDLADPNMRIDVDGKEFIGREAVDRFWRRVDVIHDLDFKDMEIQGNKVVLNVRIIGNINGVHDHTEQHIVVFKINGRWYWHSIEVH”, the protease stability score amounted to 1.16.

Regarding “TEVEKKAREINKELSSALLTGDEHIMRRLADPHVRIFFNGQHLVGMEEMMKVLLHLRIKWKDIKIEDVKIQGDFMHIDTIEHGILEVGDKRIEFHREVEIYITKINGRWMIEELTYR”, the protease stability score amounted to 1.34.

In turn, “TEYEEHMKKMNEEILHSWITGDEDTLQHLADPNVRVEINGQETHGREQLYNTFHKAGFKHWEFDSIRFQGDKSDIRGQFEVDGQLREMEVEMRIVNGRLKIVRLDIR” yielded a protease stability score of 0.977.

In the case of “TEYEHLMEYIVRRFLEVLLTGDERELDRLADPHVIHHMKQGDKSWSLHGMELLSEVSRHWRDEIRIKRVEIHDLKNIGNWSDMYSTVHLRYNGREEVVEVRLHIDVYNGRVREVEIRIH”, the protease stability score turned out to be 1.12.

Take “THDEEVIEIMMDHLREQIHTGDFTSLLEQLDPHARSDVDGREFHGREIVAHVWFHLRVKHVRIDHVDIVNGKIRVDSWIQGRINGRETEYEVILRAHKVDGRWRVHSYEIR”: the protease stability score came out at 1.72.

For “THEDEIFKEFERILREVDETGDEHDIKQYLDPNTKFHINGRDLIGMKVVTEFWRELLQKYKNLTINRRIRHVEVYNGRVHIHGHLSLHYGDKDIRVDVHIQAIKIDGRWHLQQEHYL”, the protease stability score is 1.15.

“THEEEIFRRIAELIIDALTTGDEQLLRDLADPHVRQILIIDGREITVHGREEVFELLKEHIDELRIHRVNIEHMDVVGNKVTLDGRMDGYYGDKRTRLEFRIHIDIVNGKLKELTITMR” came in with a protease stability score of 2.16.

Sequence “THEEELSREATRFMLHVLMTGDPTLTEEQADPRTRVVVGDKELHGMEHLSKWYEDHWRQYPNVRIEFKRTEVQGDKMFLDGRLKVNGRETHVFILAFKINGQWVLEEIRFK” returned a protease stability score of 1.59.

For the sequence “THEEEQARRALKHLIELEKTGDEEKWSHLADPNVRMEINGRQVHGRETIRKIYHEWRRKLGVNHIHHIEIKHIDIQGEKLRVEMHVNSQYGDKTLLIETEIELDKIDGKWIITMHYER”, the protease stability score is 1.15.

Consider “THEEHFDERVARHLHENFLTGNEDIFEHLADPHTRIIIVQGDKMIHFHGWEWFAMKMLEDLHRIKGIRITLRHINIQGDKWILEMKVDIGDKELETEIIIHVINGKIESVRIIIR”, for which the protease stability score came to 1.35.

“THEERLYREAMELEREVWETGDEHLIRDMVDPNVRFEINGVNTHGREEMARFVHEFGVDHIHIDHLQRINGRLEVRGKFQVGDKWVRTRFISTKINGRWFVESVHVR” displayed a protease stability score of 0.626.

As for “THEQKLSHEITHIFWEILKTGDEHEMRRLADPNVQLEINGVERHGMHVLEHWLVHLGIDHLHVTDHRVQGEYSYWDTTLRVGDKERTIHLEVLAFNGRVKAFRLHVR”, the protease stability score is 1.22.

Turning to “THEWREAREMIEVFLERIETGDEESLERLLDPHVRVHINGKDFHGRDEAIRKLIEMRHHSIHLKHINVQGDKVHNFGEWIVDFDGKKHTHKMILYISKVNGRWLIDSIHVE”, the protease stability score was determined as 0.98.

Sequence “THLHDQVHKAVEDVERDLMTGNEERLYKLLDPNVRIEYNGQDLHGREIAIHFLIRISNHWRFEDLHIESMNVQGNKATIHSRYVRHIGDKREETHVHLYMVKINGQWFIHSMSFS” displayed a protease stability score of 2.25.

Sequence “TKDDEDRKHFEKLLRHSLETGNWHDMQRNADPNVRLNVNGVEIHGMDTAYELWVEELNRADHIEIHMEHSTRVGDKLHLDVNVIMKQGDKHIERRVRLVVLKINGRWFIHSVHVH” had a protease stability score of 1.1.

Turning to “TKEEDLMELALRIIERVNETGDEQELHDRLDPHTQIEIGDKNEHGWEHIVHVMRHIRIEQIRFRDRRVQGDKVHVFVESEIRVGEKQLHVKVDIYVWKFDGRWIMTRMRVE”, the protease stability score was 1.33.

“TKEEEESRHWSELMFHLEETGDEEILKDLADPHVKIHVNGVHLHGMEKLEEWRRRLGITKFDSHLHDFRVQGEKMHNIVHLHINGQKIDAHIIIIIVDGKITRIIIRIT” showed a protease stability score of 0.75.

“TKEEELAHRALHEWINDINTGNEEEFKELVDPNARMLVDGRHHHGREHVINVFIHLIRKVKNLTVDLDEIEIQGDKVTVIGILRVDGREIHITIHSRKINGRWHFEDIVWE” yielded a protease stability score of 1.6.

As to “TQEKREADHSNKLEEHSHQTGDERLLTELADPHVKIFVDGQELHGREEFLRWVEEAGVKHFHVDHVRYQGDKLFVHGHFNINGREREVRLIYRKVNGKWYLHQMDIN”, the protease stability score was determined as 1.23.

In turn, “TSHEHELRRVAEEIIHAYLTGDWWRWERLFDPHVRVETQVGDKRIERHGREDLIRFLNEMRVHRIEIKTRELYDGRVHIHSRMDYEVDGQRDDVDLHLHFHIVDGKVEEVVITIK” registered a protease stability score of 1.47.

With “TTEHAATLFLTSMITGDWEWISRLFDPHVRLVFNGVTNVGRELAIHKLVETVLKLGVKHTHIDEMRLYGDKVEVHVTLRVGDKTTNIDIEVDWVDGQVKEVHIDTRTEDTSKILKHVYK”, the protease stability score amounted to 0.109.

“VEDLQLAEHVTRLLLHLVHTGDFDVMKELLDPNVRIHVDGQDYHGRDVWKHILDRFDYISVHHSEVKENDVQGNKVNIRVHTDVIFEYGDKRLRQRYDVVVIAQKINGRWIIELFSVR” showed a protease stability score of 1.22.

On to “VEDLREYIRIAEELVKSWITGDWDRLRKLVDPNVRLDVDGVENIGRDHVHRALEEHEKHIRLKDHRIEHIDAVDGKSTMHTRSHFHINGVEHEVNVHMEFVIVNGRVTEMRISIR”, for which the protease stability score amounted to 1.02.

For “VETEERLHDIVHSIIRLDETGDEQDFDRLVDPNAKFDIDGKELHGRDNFRHMWARYRRELGVDHIQFKHVFIQGDKIHQERRVTIGDKTYNMHVDLVVIDGRIQHVRYRIR”, the protease stability score worked out at 1.56.

(Values after the NTF2 design screens of Basanta et al. (2020).)
